The values that follow come from patent publication US20250296958A1, “GL[…] E[…]” (THE ADMINISTRATORS OF THE TULANE EDUCATIONAL FUND, priority 2022, published 2025).

Experiment [1] has as its target delta opioid receptor (UniProt P41143). Briefly: PDSP receptor binding.
For experiment [2] the target is unchanged. Put plainly: PDSP receptor binding; log of Ki in M.
The target is the same in experiment [3]. Briefly: PDSP receptor binding, selectivity against MOR.

As usually defined, the Ki is a dissociation constant, usually derived from enzyme kinetics or from competition with a known ligand.

ZH853 (peptide) showed a Ki in experiment [1] of 271 nM. In experiment [2], this substance gave a Log Ki of -6.57. Further, the del/mu (ratio of Ki at DOR to Ki at MOR) in experiment [3] stood at 291.
